Results from patent US20250243281A1 (IMMUNITAS THERAPEUTICS, published 2025).
Where a chain is given by its changes, count along the chain named.

T1: hCLEC2D (human, UniProt Q9UHP7 1-191)
T1 construct: Overexpressed on HEK293 or K562 cells; the same id is used for endogenous CLEC2D on NALM6 and Raji cells; also called LLT1
T1 sequence: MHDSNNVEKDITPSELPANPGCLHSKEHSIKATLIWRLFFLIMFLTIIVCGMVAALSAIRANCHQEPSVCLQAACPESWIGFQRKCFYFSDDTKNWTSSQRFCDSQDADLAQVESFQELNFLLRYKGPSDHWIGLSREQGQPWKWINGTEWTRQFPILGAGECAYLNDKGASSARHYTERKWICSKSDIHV

T2: hKLRF1 (human, UniProt Q9NZS2 1-231)
T2 construct: Overexpressed on HEK293 cells
T2 sequence: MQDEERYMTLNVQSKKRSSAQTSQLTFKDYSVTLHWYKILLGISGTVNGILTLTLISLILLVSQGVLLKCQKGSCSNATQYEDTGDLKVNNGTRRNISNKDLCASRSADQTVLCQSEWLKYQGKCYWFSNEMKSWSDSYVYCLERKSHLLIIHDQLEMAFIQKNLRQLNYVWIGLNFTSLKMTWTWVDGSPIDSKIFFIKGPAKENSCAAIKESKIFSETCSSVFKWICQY

T3: hKLRF2 (human, UniProt D3W0D1 1-207)
T3 construct: Overexpressed on HEK293 cells
T3 sequence: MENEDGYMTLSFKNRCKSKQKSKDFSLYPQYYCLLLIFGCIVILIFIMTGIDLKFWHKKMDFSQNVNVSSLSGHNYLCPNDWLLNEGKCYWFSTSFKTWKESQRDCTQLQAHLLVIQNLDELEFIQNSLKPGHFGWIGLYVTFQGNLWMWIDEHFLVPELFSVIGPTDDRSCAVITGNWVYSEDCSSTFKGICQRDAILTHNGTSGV

T4: hCLEC12B (human, UniProt Q2HXU8 1-276)
T4 construct: Overexpressed on HEK293 cells
T4 sequence: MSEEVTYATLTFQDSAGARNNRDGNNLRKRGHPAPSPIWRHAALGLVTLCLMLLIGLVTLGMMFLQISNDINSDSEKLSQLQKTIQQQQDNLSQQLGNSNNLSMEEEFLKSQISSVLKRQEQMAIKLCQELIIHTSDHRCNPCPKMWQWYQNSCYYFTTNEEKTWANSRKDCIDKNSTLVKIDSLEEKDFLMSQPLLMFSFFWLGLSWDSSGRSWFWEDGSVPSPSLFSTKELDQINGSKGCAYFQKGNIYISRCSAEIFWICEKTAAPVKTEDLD

B1: Ustekinumab (antibody, V domains shown)
VH: EVQLVQSGAEVKKPGESLKISCKGSGYSFTTYWLGWVRQMPGKGLDWIGIMSPVDSDIRYSPSFQGQVTMSVDKSITTAYLQWNSLKASDTAMYYCARRRPGQGYFDFWGQGTLVTVSS
VL: DIQMTQSPSSLSASVGDRVTITCRASQGISSWLAWYQQKPEKAPKSLIYAASSLQSGVPSRFSGSGSGTDFTLTISSLQPEDFATYYCQQYNIYPYTFGQGTKLEIK
B2: Ab2 (antibody, human IgG1, V domains shown)
VH: EVQLLESGGGLVQPGGSLRLSCAASGFAFSTYAMSWVRQAPGKGLEWVSAISGVGGTTYYADSVKGRFTISRDNSKNTLYLQMNSLRAEDTAVYYCAKPLDSSLWADFDLWGRGTLVTVSS
VL: DIQLTQSPSSVSASVGDRVTITCRASQGISSWLAWYQQKPGKAPKLLIYYASSLQDGVPSRFSGSGSGTDFTLTISSLQPEDFATYYCQQASVLPITFGGGTKVEIK
notes: IgG purified from yeast culture
B3: Ab9 (antibody, human IgG1, V domains shown)
VH: B2 VH with A28T, T31P, G53A, V54S, L104F
VL: B2 VL with Y50A, D56S, A91H
B4: Ab4 (antibody, human IgG1, V domains shown)
VH: B2 VH with A28T, S30E, T31R, G53A, Y59K, L110A
VL: B2 VL with Y50A, S53G, D56S, V93Y
notes: as for B2
B5: Ab5 (antibody, human IgG1, V domains shown)
VH: B2 VH with A28T, S30G, T31Q, G53A, Y59A, D109Q
VL: B2 VL with G28D, Y50F, D56S, V93K
notes: as for B2
B6: Ab6 (antibody, human IgG1, V domains shown)
VH: B2 VH with A28T, S30G, T31Q, G53A, V54A, L104Q
VL: B2 VL with Y50A, D56S, S76N, S92W
notes: as for B2
B7: Ab8 (antibody, human IgG1, V domains shown)
VH: B2 VH with A28T, S30G, Y32F, L104F
VL: B2 VL with G28T, Y50A, D56S, A91Q
notes: as for B2

Target: T5, human HSP70 (human, UniProt P0DMV8 1-641)
T5 construct: polyspecificity reagent
T5 sequence (P0DMV8 whole entry): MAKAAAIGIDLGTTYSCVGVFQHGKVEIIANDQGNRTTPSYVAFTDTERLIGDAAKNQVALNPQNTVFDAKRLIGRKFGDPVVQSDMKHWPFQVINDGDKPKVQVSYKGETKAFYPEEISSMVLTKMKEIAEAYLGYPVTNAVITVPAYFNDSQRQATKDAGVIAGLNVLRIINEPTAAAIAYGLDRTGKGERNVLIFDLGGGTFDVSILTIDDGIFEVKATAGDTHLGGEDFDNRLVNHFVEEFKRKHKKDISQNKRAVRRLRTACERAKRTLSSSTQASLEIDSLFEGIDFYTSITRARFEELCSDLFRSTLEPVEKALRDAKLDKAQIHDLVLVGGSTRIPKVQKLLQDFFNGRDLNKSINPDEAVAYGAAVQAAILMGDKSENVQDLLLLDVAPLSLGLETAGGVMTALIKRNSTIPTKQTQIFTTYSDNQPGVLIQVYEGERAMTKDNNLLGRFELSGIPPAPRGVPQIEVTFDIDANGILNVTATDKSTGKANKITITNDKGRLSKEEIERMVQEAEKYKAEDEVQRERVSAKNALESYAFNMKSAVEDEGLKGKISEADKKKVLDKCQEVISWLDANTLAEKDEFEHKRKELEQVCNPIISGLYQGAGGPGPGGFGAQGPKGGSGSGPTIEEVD
Experiment: polyspecificity ELISA, coated HSP70, 100 nM antibody

Norm (signal over AdalimumAb) [fold] | Binder
3.71 | B1

Target: T1, hCLEC2D
Experiment: flow cytometry, HEK293 transfectants, 100 nM antibody;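 further: antibody applied at a saturating level and incubated with cells for 30 min at room temperature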
Protocol: (§1) For the antibody binding assay, all cell lines were washed in phosphate-buffered saline with 0.1% bovine serum albumin (PBSA) and seeded in a 96 well plate at a density of 4×10⁴ cells per well. Washed cells were resuspended in 100 nM of antibody (a saturating concentration to measure maximum binding on cells) and incubated at room temperature for 30 minutes. […] Cells were analyzed by flow cytometry with a Thermo Fisher Attune flow cytometer.
(§2) Data were analyzed using FlowJo software. MFI for each sample was calculated and exported into Graphpad Prism.

% of CD161 binding [%] | Binder
0.863 | B2
0.808 | B3
1.11 | B4
0.872 | B5
1.01 | B6
0.846 | B7

Target: T2, hKLRF1
Experiment: as above
Protocol: as §1, §2

% of CD161 binding [%] | Binder
0.032 | B2
0.042 | B3
0.095 | B4
0.059 | B5
0.036 | B6
0.031 | B7

Target: T3, hKLRF2
Experiment: as above
Protocol: as §1, §2

% of CD161 binding [%] | Binder
0.049 | B2
0.028 | B3
0.056 | B4
0.035 | B5
0.029 | B6
0.038 | B7

Target: T4, hCLEC12B
Experiment: as above
Protocol: as §1, §2

% of CD161 binding [%] | Binder
0.057 | B2
0.025 | B3
0.074 | B4
0.056 | B5
0.011 | B6
0.049 | B7

Target: T2, hKLRF1
Experiment: flow cytometry; 100 nM antibody on HEK293 cells expressing KLRF1; Alexa Fluor 647 anti-human IgG; MFI
Protocol: as §1, §2

binding result | Binder
no binding (tested: 100 nM) | B2
no binding (tested: 100 nM) | B3
no binding (tested: 100 nM) | B4
no binding (tested: 100 nM) | B5
no binding (tested: 100 nM) | B6
no binding (tested: 100 nM) | B7

Target: T3, hKLRF2
Experiment: flow cytometry; 100 nM antibody on HEK293 cells expressing KLRF2; Alexa Fluor 647 anti-human IgG; MFI
Protocol: as §1, §2

binding result | Binder
no binding (tested: 100 nM) | B2
no binding (tested: 100 nM) | B3
no binding (tested: 100 nM) | B4
no binding (tested: 100 nM) | B5
no binding (tested: 100 nM) | B6
no binding (tested: 100 nM) | B7

Target: T1, hCLEC2D
Experiment: flow cytometry; 100 nM antibody on HEK293 cells expressing CLEC2D; Alexa Fluor 647 anti-human IgG; MFI
Protocol: as §1, §2

binding result | Binder
no binding (tested: 100 nM) | B2
no binding (tested: 100 nM) | B3
no binding (tested: 100 nM) | B4
no binding (tested: 100 nM) | B5
no binding (tested: 100 nM) | B6
no binding (tested: 100 nM) | B7

Target: T4, hCLEC12B
Experiment: flow cytometry; 100 nM antibody on HEK293 cells expressing CLEC12B; Alexa Fluor 647 anti-human IgG; MFI
Protocol: as §1, §2

binding result | Binder
no binding (tested: 100 nM) | B2
no binding (tested: 100 nM) | B3
no binding (tested: 100 nM) | B4
no binding (tested: 100 nM) | B5
no binding (tested: 100 nM) | B6
no binding (tested: 100 nM) | B7
